Results as given in publication PMC9706563 (Journal of Medicinal Chemistry, 2022).
Ends that are not written are not given here.

Molecular target: T1, PRMT5-MEP50 complex (full-length, purified) (human | , UniProt O14744 1-637; Q9BQA1 1-342)
T1 construct: Protein arginine methyltransferase 5 (PRMT5), human, of the full-length PRMT5-MEP50 complex; MEP50 (WDR77), of the full-length PRMT5-MEP50 complex; also called native PRMT5-MEP50; PRMT5-MEP50 methyltransferase; copies: 4 + 4
Assay: fluorescence polarisation; competitive; tracer fluorescently labeled … (S1) 1 nM, PRMT5-MEP50 600 nM, unlabeled peptide titrated in two-fold dilutions; 50 mM HEPES, 250 mM NaCl, 1 mM TCEP, 0.01% Tween 20, pH 8.0, room temperature
Conditions: both partners purified

T1 sequence (O14744 whole entry, chain 1 of 2): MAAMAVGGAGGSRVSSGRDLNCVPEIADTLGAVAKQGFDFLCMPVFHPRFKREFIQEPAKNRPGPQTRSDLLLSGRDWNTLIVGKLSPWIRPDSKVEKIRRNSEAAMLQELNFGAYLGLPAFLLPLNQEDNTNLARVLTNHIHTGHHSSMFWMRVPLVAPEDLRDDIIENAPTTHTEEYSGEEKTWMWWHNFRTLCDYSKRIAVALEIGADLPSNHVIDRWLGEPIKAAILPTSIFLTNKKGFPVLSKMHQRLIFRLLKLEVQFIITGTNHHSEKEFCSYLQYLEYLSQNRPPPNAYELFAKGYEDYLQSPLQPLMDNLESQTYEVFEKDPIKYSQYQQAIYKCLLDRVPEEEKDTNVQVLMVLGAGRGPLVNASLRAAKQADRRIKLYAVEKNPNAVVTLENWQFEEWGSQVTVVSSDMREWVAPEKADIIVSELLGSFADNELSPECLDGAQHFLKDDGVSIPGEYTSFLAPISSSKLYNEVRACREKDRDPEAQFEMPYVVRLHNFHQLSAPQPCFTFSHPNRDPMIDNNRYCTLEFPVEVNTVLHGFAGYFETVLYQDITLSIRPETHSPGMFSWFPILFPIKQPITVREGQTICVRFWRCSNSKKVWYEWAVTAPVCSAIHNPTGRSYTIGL
T1 sequence (Q9BQA1 whole entry, chain 2 of 2): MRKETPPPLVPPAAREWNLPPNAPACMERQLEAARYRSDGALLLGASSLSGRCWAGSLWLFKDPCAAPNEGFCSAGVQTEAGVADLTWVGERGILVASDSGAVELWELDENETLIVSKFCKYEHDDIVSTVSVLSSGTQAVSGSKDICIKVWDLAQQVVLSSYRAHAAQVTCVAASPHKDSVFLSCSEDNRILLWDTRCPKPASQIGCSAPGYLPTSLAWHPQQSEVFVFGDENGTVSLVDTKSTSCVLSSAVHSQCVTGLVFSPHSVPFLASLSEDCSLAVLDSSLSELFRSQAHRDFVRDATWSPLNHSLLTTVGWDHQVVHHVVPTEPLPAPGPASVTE

B1: fluorescently labeled SRVVPGQFDDADSSD RioK1 sequence (peptide)
peptide: SRVVPGQFDDADSSD
modifications: not fully specified; also: FITC label, position not given here
notes: also called S1; source: synthetic peptide
B1: binds.
